The target of series [1] is T1, C-reactive protein (CRP) (human) (UniProt P02741).
T1 sequence: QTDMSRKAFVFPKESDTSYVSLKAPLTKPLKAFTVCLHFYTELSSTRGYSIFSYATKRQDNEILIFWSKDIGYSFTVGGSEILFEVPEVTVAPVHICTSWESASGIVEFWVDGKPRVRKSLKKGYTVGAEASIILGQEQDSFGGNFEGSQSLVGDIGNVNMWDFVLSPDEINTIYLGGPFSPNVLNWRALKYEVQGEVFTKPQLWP
Put plainly: SPR. The settings on record: Ugu; SPR (ProteON XPR36) at 25 C in SB: 40 mM HEPES pH 7.5, 125 mM NaCl, 5 mM KCl, 1 mM MgCl2, 0.01% Tween 20; aptamer immobilized via 3' A20/T20 hybridized to ….

For series [2], the target named is Lactate dehydrogenase-5 (LDH-5) (human) (UniProt P00338). Description: SPR. The settings on record: Aad; SPR (ProteON XPR36) at 25 C in SB: 40 mM HEPES pH 7.5, 125 mM NaCl, 5 mM KCl, 1 mM MgCl2, 0.01% Tween 20; aptamer immobilized via 3' A20/T20 hybridized to ….

A word on the Kd: it is the concentration at which binding is half-saturated. A lower Kd goes with higher affinity. In turn, “CGCACATCAGTTTAGCTAGTTCTGCCTTAATATGGTCGGTTAAGCGCA [CRP-Ugu4-3]” came in with a Kd in series [1] of 0.0062 nM.
Take “TGCTGCTGGCTCGTGAGACGGATATCAGGTCTCCTAAGGCTGGC [LDH-Aad1-3]”: the Kd in series [2] came out at 0.235 nM.

For the origin of these results see paper PMC7215426.
